In the Human Domainome abundance scans (Beltran et al. 2025):
± gives the uncertainty stated by the source.

B1: Ankyrin-2, residues 3571 to 3650; numbered along this chain, Q01484 (parent)
chain: ERLAYIADHLGFSWTELARELDFTEEQIHQIRIENPNSLQDQSHALLKYWLERDGKHATDTNLVECLTKINRMDIVHLME

Variants of: B1
Experiment: abundance fitness (aPCA) (normalised: wild type 0, dead -1); higher = more abundant; growth selection in yeast, the domain comes from the species named
Details: Homo sapiens

Abundance fitness, by site and new letter:
I70: K -0.784 ± 0.49, V -0.035 ± 0.14, C -0.113 ± 0.075, W -0.789 ± 0.21, A -0.099 ± 0.07, N -0.693 ± 0.26, R -0.551 ± 0.064, Q -0.382 ± 0.18, G -0.663 ± 0.068, L -0.065 ± 0.044, M -0.002 ± 0.16, H -0.334 ± 0.17, D -0.533 ± 0.12, E -0.305 ± 0.12, P -1.06 ± 0.13, T -0.226 ± 0.12
T61: F -0.063 ± 0.18, L 0.084 ± 0.076, P 0.029 ± 0.06, H -0.038 ± 0.13, R -0.118 ± 0.084, G -0.011 ± 0.079, A -0.102 ± 0.063, I 0.027 ± 0.24, E -0.07 ± 0.13, K -0.286 ± 0.26, Q -0.093 ± 0.14, D -0.017 ± 0.12, V 0.112 ± 0.12, N -0.244 ± 0.25, Y -0.087 ± 0.14, M -0.427 ± 0.26
V76: H -0.084 ± 0.13, G -0.216 ± 0.046, E -0.063 ± 0.11, C -0.027 ± 0.18, F -0.102 ± 0.11, A -0.091 ± 0.16
T59: Q 0.008 ± 0.074, D -0.103 ± 0.12, R -0.087 ± 0.047, H -0.055 ± 0.08, A -0.035 ± 0.059, L -0.04 ± 0.061, G -0.088 ± 0.05, M -0.124 ± 0.13, C -0.095 ± 0.1, W -0.099 ± 0.062, N -0.054 ± 0.21, S 0.036 ± 0.046, F -0.159 ± 0.099, K -0.025 ± 0.2, Y 0.121 ± 0.13, V -0.106 ± 0.071, E -0.069 ± 0.088
D74: Y -0.862 ± 0.24, M -0.839 ± 0.26, A -0.515 ± 0.059, G -0.678 ± 0.094, Q -0.435 ± 0.18, N -0.577 ± 0.17, E -0.151 ± 0.11, F -0.971 ± 0.28, L -0.849 ± 0.095, K -0.348 ± 0.19, I -0.692 ± 0.22, W -0.573 ± 0.17, V -0.682 ± 0.11, R -0.707 ± 0.11, H -0.563 ± 0.15, T -0.793 ± 0.12, P -0.471 ± 0.058, S -0.593 ± 0.067
A58: N 0.054 ± 0.15, P 0.027 ± 0.079, W -0.167 ± 0.082, C -0.026 ± 0.13, V -0.018 ± 0.052, L 0.041 ± 0.061, S -0.193 ± 0.076, Y 0.026 ± 0.19, H 0.156 ± 0.18, R -0.067 ± 0.044, E -0.071 ± 0.088, F -0.05 ± 0.073, Q 0.039 ± 0.093, I -0.294 ± 0.12, G -0.03 ± 0.047, M -0.231 ± 0.13, T -0.098 ± 0.082
M73: V 0.035 ± 0.15, C 0.226 ± 0.48, T -0.092 ± 0.16, P -0.134 ± 0.45, L 0.04 ± 0.41, G -0.165 ± 0.31, R 0.018 ± 0.35
L67: F -0.591 ± 0.23, I -0.199 ± 0.13, E -0.643 ± 0.22, G -0.84 ± 0.12, C -0.153 ± 0.13, T -1.16 ± 0.34, P -0.875 ± 0.16, R -1.09 ± 0.13, A -0.224 ± 0.094, Y -0.754 ± 0.39, M -0.249 ± 0.1, H -0.838 ± 0.5, W -0.832 ± 0.19
K69: A 0.001 ± 0.041, G -0.06 ± 0.041, P -0.545 ± 0.038, F -0.126 ± 0.1, W -0.306 ± 0.05, C -0.094 ± 0.1, L -0.059 ± 0.042, M -0.068 ± 0.069, D -0.094 ± 0.1, N 0.012 ± 0.12, S -0.049 ± 0.059, V -0.027 ± 0.044, E -0.054 ± 0.047, T -0.032 ± 0.062, Q 0 ± 0.066, I -0.121 ± 0.15, R 0.005 ± 0.039, Y -0.017 ± 0.15
R72: L -0.187 ± 0.15, Q -0.137 ± 0.16, A -0.205 ± 0.21, V -0.568 ± 0.15, W -0.659 ± 0.28, T -0.331 ± 0.29, G -0.204 ± 0.12, P -0.588 ± 0.093, S 0.223 ± 0.26
I75: E -0.031 ± 0.11, C -0.297 ± 0.28, A 0.011 ± 0.17, V 0.136 ± 0.27, M 0.076 ± 0.25, F -0.371 ± 0.34, S -0.54 ± 0.45, G -0.263 ± 0.087, R -0.609 ± 0.21
D60: A -0.07 ± 0.071, P -0.069 ± 0.058, H -0.286 ± 0.16, T -0.016 ± 0.11, I -0.104 ± 0.12, L -0.022 ± 0.059, R -0.082 ± 0.049, W -0.067 ± 0.049, Y -0.151 ± 0.13, Q -0.018 ± 0.075, M 0.019 ± 0.11, G -0.115 ± 0.044, C -0.043 ± 0.098, F 0.074 ± 0.093, K -0.092 ± 0.12, N -0.375 ± 0.2, E -0.041 ± 0.08, S -0.105 ± 0.05
N71: D -0.054 ± 0.17, S -0.028 ± 0.065, H -0.163 ± 0.13, K -0.078 ± 0.12, T -0.18 ± 0.078, E -0.153 ± 0.12, M -0.167 ± 0.096, F -0.343 ± 0.15, Y -0.476 ± 0.36, G -0.014 ± 0.076, R -0.031 ± 0.073, A 0.021 ± 0.099, V -0.252 ± 0.057, P -0.135 ± 0.057, L -0.196 ± 0.055, C -0.064 ± 0.14, W -0.355 ± 0.093
E65: P 0.015 ± 0.051, C -0.147 ± 0.11, V -0.099 ± 0.058, D 0.193 ± 0.21, F -0.184 ± 0.17, K -0.086 ± 0.098, T 0.031 ± 0.057, Q -0.017 ± 0.067, A -0.012 ± 0.052, W -0.246 ± 0.075, M -0.243 ± 0.096, H -0.059 ± 0.13, Y 0.097 ± 0.12, S -0.056 ± 0.05, I 0.143 ± 0.15, G 0.014 ± 0.048, N -0.231 ± 0.25, L -0.072 ± 0.058, R -0.011 ± 0.045
V64: G -0.108 ± 0.078, W -0.165 ± 0.14, E 0.079 ± 0.12, Q -0.065 ± 0.11, A -0.019 ± 0.078, R 0.01 ± 0.076, M 0.007 ± 0.12, N -0.369 ± 0.28, C -0.134 ± 0.096, T 0.025 ± 0.095, S -0.011 ± 0.055, L -0.016 ± 0.057, D -0.206 ± 0.12, P -0.266 ± 0.076, F -0.073 ± 0.1, I 0.009 ± 0.063, Y -0.041 ± 0.14
G55: E -0.033 ± 0.044, N 0.028 ± 0.081, M -0.061 ± 0.051, T -0.026 ± 0.037, D 0.041 ± 0.073, A -0.013 ± 0.034, C -0.114 ± 0.077, V -0.038 ± 0.034, F -0.143 ± 0.051, I -0.089 ± 0.064, W -0.112 ± 0.063, Q 0.008 ± 0.047, S -0.045 ± 0.036, Y -0.052 ± 0.066, L -0.017 ± 0.031, P -0.035 ± 0.036, K -0.094 ± 0.066, H -0.041 ± 0.072
L63: K -0.677 ± 0.32, H -0.777 ± 0.22, T -0.408 ± 0.1, R -0.935 ± 0.087, P -0.651 ± 0.071, Y -0.139 ± 0.15, W -0.205 ± 0.13, Q -0.885 ± 0.2, M 0.022 ± 0.17, G -0.624 ± 0.086, I 0.07 ± 0.11, S -0.634 ± 0.081, E -0.657 ± 0.12, V -0.091 ± 0.041, A -0.11 ± 0.049, F -0.143 ± 0.12, C -0.044 ± 0.13
C66: P 0.065 ± 0.056, D -0.363 ± 0.15, W -0.058 ± 0.064, R 0.001 ± 0.045, L -0.126 ± 0.061, Q -0.018 ± 0.093, V 0.034 ± 0.052, I -0.143 ± 0.082, H 0.009 ± 0.2, A -0.016 ± 0.059, E 0.091 ± 0.12, N -0.092 ± 0.17, T -0.078 ± 0.065, F -0.035 ± 0.1, G -0.045 ± 0.042, Y -0.27 ± 0.11, K 0.014 ± 0.1, M 0.009 ± 0.099, S -0.013 ± 0.056
T68: I -0.122 ± 0.29, M -0.102 ± 0.095, V -0.001 ± 0.08, P -0.098 ± 0.046, H 0.068 ± 0.13, R -0.071 ± 0.051, Y -0.136 ± 0.17, S -0.147 ± 0.087, K -0.044 ± 0.088, G -0.039 ± 0.077, E 0.047 ± 0.11, N -0.231 ± 0.15, A -0.057 ± 0.13, F 0.041 ± 0.15
N62: F -0.181 ± 0.13, T -0.029 ± 0.083, P -0.079 ± 0.054, S 0.007 ± 0.048, M 0.018 ± 0.14, K -0.374 ± 0.46, Q -0.082 ± 0.089, A -0.001 ± 0.053, I -0.169 ± 0.1, R -0.013 ± 0.05, L 0.004 ± 0.047, E -0.089 ± 0.13, Y -0.135 ± 0.12, D 0.051 ± 0.081, V 0.035 ± 0.056, H 0.015 ± 0.11, W 0.012 ± 0.12, G 0.072 ± 0.046
K56: I -0.084 ± 0.13, C 0.067 ± 0.097, E 0.149 ± 0.12, H 0.022 ± 0.099, D 0.052 ± 0.14, L -0.043 ± 0.054, S -0.019 ± 0.061, R -0.037 ± 0.045, F -0.023 ± 0.094, Q -0.067 ± 0.12, N -0.071 ± 0.1, W -0.126 ± 0.063, T -0.01 ± 0.073, A -0.02 ± 0.059, Y -0.13 ± 0.12, P -0.05 ± 0.063, V -0.057 ± 0.059
H57: F -0.107 ± 0.084, S 0.06 ± 0.058, N -0.002 ± 0.13, M 0.004 ± 0.085, P 0.009 ± 0.067, V 0 ± 0.092, D -0.061 ± 0.11, L -0.093 ± 0.064, K 0.056 ± 0.16, R -0.052 ± 0.058, E 0.101 ± 0.13, G -0.019 ± 0.052, W -0.065 ± 0.09, C -0.062 ± 0.07
